Experimental data: the supplement of paper PMC7125110
± gives the standard error. For part of these data: This sample holds only a part of the variants without activity.

B1: glmS ribozyme (parent)
chain: AUAAAAGCGCCAGAACUACAGAAAUGUAGUUGACGAGGAGGAGGUUUAUCGAAUUUUCGGCGGAUGCCUCCAAA

What was measured:
Settings in all cases: with glucosamine-6-phosphate
[1] = variants of: B1; assay: kcat; higher = faster cleavage; RNA array
Summary of the method: (§1)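 Over ~14 h at 37 °C, tiles were imaged as glucosamine-6-phosphate (40 μM to 10 mM) in HEPES/KCl/Mg(OAc)2 buffer flowed across sequenced MiSeq chips. The chips carried barcoded ribozyme variants transcribed in situ by E. coli RNA polymerase and tracked with a hybridised Cy3 probe. After normalisation to baseline and to non-cleaving reference variants, one- or two-exponential decay fits of per-tile medians gave kobs. kcat and KM followed from weighted Michaelis–Menten fits across concentrations.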

[2] = variants of: B1; assay: KM; higher = weaker cofactor use; RNA array
Summary of the method: as §1

[3] = variants of: B1; assay: self-cleavage kobs at 640 uM GlcN6P; higher = faster cleavage; RNA array
Summary of the method: as §1

[4] = variants of: B1; assay: self-cleavage kobs at 2500 uM GlcN6P; higher = faster cleavage; RNA array
Summary of the method: as §1

[5] = variants of: B1; assay: self-cleavage kobs at 10000 uM GlcN6P; higher = faster cleavage; RNA array
Summary of the method: as §1

[6] = variants of: B1; assay: self-cleavage kobs at 160 uM GlcN6P; higher = faster cleavage; RNA array
Summary of the method: as §1

[7] = variants of: B1; assay: self-cleavage kobs at 40 uM GlcN6P; higher = faster cleavage; RNA array
Summary of the method: as §1

Variant	kcat [1]	KM [2]	self-cleavage kobs at 640 uM GlcN6P [3]	self-cleavage kobs at 2500 uM GlcN6P [4]	self-cleavage kobs at 10000 uM GlcN6P [5]	self-cleavage kobs at 160 uM GlcN6P [6]	self-cleavage kobs at 40 uM GlcN6P [7]
G29C G40C	9.96e-05 ± 4.4e-06 s⁻¹	1.02 ± 0.15 mM	3.65e-05 ± 1.5e-05 s⁻¹	7.4e-05 ± 1.6e-05 s⁻¹	8.84e-05 ± 1.8e-05 s⁻¹		
C16G U69G	4.98e-05 ± 9.6e-06 s⁻¹		5.32e-05 ± 1.1e-05 s⁻¹	5.34e-05 ± 6.2e-06 s⁻¹		3.78e-05 ± 1.2e-05 s⁻¹	
U56G G66A	0.0089 ± 0.0034 s⁻¹		0.00136 ± 0.00037 s⁻¹	0.00405 ± 0.00078 s⁻¹	0.00875 ± 0.0018 s⁻¹	0.00049 ± 0.00011 s⁻¹	0.00021 ± 3.4e-05 s⁻¹
U31A C67G	0.000586 ± 0.00013 s⁻¹	3.66 ± 1.5 mM	0.0001 ± 2.6e-05 s⁻¹	0.000201 ± 4.4e-05 s⁻¹	0.000456 ± 7.3e-05 s⁻¹		
A12U A52C C67A	2.65e-05 ± 5e-06 s⁻¹						
G44C A53G	0.000232 ± 7.9e-06 s⁻¹	3.06 ± 0.22 mM	3.96e-05 ± 1.4e-05 s⁻¹	0.000105 ± 1.9e-05 s⁻¹	0.000177 ± 3e-05 s⁻¹		
U31C U55C	0.00793 ± 0.00044 s⁻¹	3.75 ± 0.3 mM	0.00116 ± 0.00021 s⁻¹	0.00284 ± 0.00079 s⁻¹	0.00585 ± 0.00073 s⁻¹	0.000317 ± 6.4e-05 s⁻¹	8.92e-05 ± 2.1e-05 s⁻¹
U45A C50U	0.000477 ± 0.00018 s⁻¹			3.25e-05 ± 1.4e-05 s⁻¹	0.000107 ± 1.3e-05 s⁻¹		
A12G U30C	0.000109 ± 8.8e-06 s⁻¹	3.18 ± 0.8 mM	2.84e-05 ± 1.3e-05 s⁻¹	4.54e-05 ± 7.7e-06 s⁻¹	8.29e-05 ± 5.8e-06 s⁻¹		
G41C U46G	0.000114 ± 3.4e-06 s⁻¹	2.06 ± 0.21 mM		6.37e-05 ± 1.1e-05 s⁻¹	9.41e-05 ± 1e-05 s⁻¹		
A15G U65G	0.0045 ± 0.0017 s⁻¹	4.2 ± 2 mM	0.000664 ± 0.00013 s⁻¹	0.00285 ± 0.0006 s⁻¹	0.00279 ± 0.00062 s⁻¹	0.000133 ± 3.7e-05 s⁻¹	4.05e-05 ± 1e-05 s⁻¹
C16U G41A	0.00129 ± 0.00064 s⁻¹		0.000403 ± 7.6e-05 s⁻¹	0.0011 ± 0.00019 s⁻¹		0.000153 ± 3.2e-05 s⁻¹	6.97e-05 ± 1.2e-05 s⁻¹
U54C U57G	0.000492 ± 1.5e-05 s⁻¹				6.43e-05 ± 1.1e-05 s⁻¹		
C10A U31G	< 1e-05 s⁻¹		< 1e-05 s⁻¹	< 1e-05 s⁻¹			
U47C A53U	0.00157 ± 0.00025 s⁻¹	1.15 ± 0.28 mM	0.000671 ± 0.00012 s⁻¹	0.0012 ± 0.00023 s⁻¹	0.00124 ± 0.00025 s⁻¹	0.000209 ± 4.6e-05 s⁻¹	4.38e-05 ± 9.7e-06 s⁻¹
